Source: IntAct's records for PubMed 17483306

B1: ATPase 2, plasma membrane-type (Arabidopsis thaliana (Mouse-ear cress)), P19456 (parent)
chain: MSSLEDIKNETVDLEKIPIEEVFQQLKCSREGLTTQEGEDRIQIFGPNKLEEKKESKLLKFLGFMWNPLSWVMEMAAIMAIALANGDGRPPDWQDFVGIICLLVINSTISFIEENNAGNAAAALMAGLAPKTKVLRDGKWSEQEAAILVPGDIVSIKLGDIIPADARLLEGDPLKVDQSALTGESLPVTKHPGQEVFSGSTCKQGEIEAVVIATGVHTFFGKAAHLVDSTNQVGHFQKVLTAIGNFCICSIAIGMVIEIIVMYPIQRRKYRDGIDNLLVLLIGGIPIAMPTVLSVTMAIGSHRLSQQGAITKRMTAIEEMAGMDVLCSDKTGTLTLNKLSVDKNLVEVFCKGVEKDQVLLFAAMASRVENQDAIDAAMVGMLADPKEARAGIREVHFLPFNPVDKRTALTYIDGSGNWHRVSKGAPEQILELAKASNDLSKKVLSIIDKYAERGLRSLAVARQVVPEKTKESPGAPWEFVGLLPLFDPPRHDSAETIRRALNLGVNVKMITGDQLAIGKETGRRLGMGTNMYPSSALLGTHKDANLASIPVEELIEKADGFAGVFPEHKYEIVKKLQERKHIVGMTGDGVNDAPALKKADIGIAVADATDAARGASDIVLTEPGLSVIISAVLTSRAIFQRMKNYTIYAVSITIRIVFGFMLIALIWEFDFSAFMVLIIAILNDGTIMTISKDRVKPSPTPDSWKLKEIFATGVVLGGYQAIMTVIFFWAAHKTDFFSDTFGVRSIRDNNHELMGAVYLQVSIISQALIFVTRSRSWSFVERPGALLMIAFLIAQLIATLIAVYANWEFAKIRGIGWGWAGVIWLYSIVTYFPLDVFKFAIRYILSGKAWLNLFENKTAFTMKKDYGKEEREAQWALAQRTLHGLQPKEAVNIFPEKGSYRELSEIAEQAKRRAEIARLRELHTLKGHVESVVKLKGLDIETPSHYTV
partner: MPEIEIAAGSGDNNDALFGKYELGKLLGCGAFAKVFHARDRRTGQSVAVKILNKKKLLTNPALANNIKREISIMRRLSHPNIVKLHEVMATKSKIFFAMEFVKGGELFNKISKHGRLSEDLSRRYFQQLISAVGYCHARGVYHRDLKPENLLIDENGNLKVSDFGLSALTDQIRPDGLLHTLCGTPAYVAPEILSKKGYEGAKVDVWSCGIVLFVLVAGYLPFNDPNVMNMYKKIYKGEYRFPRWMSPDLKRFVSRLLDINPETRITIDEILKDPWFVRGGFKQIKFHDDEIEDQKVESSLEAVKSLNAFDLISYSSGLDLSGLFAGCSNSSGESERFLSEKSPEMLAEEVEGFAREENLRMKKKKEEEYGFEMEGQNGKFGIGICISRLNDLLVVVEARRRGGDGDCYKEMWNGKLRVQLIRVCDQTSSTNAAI
B2: ATPase 2, plasma membrane-type (Arabidopsis thaliana (Mouse-ear cress)), P19456 (parent)
chain: B1 chain
partner: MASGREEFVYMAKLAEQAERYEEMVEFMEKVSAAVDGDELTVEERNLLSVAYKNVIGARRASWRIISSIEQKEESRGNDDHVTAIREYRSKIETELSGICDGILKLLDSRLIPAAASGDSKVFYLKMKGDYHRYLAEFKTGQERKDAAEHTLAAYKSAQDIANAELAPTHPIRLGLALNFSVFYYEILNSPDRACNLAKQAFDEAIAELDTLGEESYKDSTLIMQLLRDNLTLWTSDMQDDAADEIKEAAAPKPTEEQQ

Variants of: B1
Conditions: with cipkb_arath CIPK11, O22932

Row | Variant | effect of a mutation on the interaction
1 | S931A | disrupting interaction

Variants of: B2
Conditions: with 14332_arath GRF2, Q01525

Row | Variant | effect of a mutation on the interaction
2 | R913A;S931D | decreasing interaction
3 | S931A | increasing interaction
4 | S931D | disrupting interaction
